Reference: patent US20180134765A1 (AVIDBIOTICS, published 2018)

B1: wt MICA-Fv (designed binder)
chain: EPHSLRYNLTVLSWDGSVQSGFLTEVHLDGQPFLRCDRQKCRAKPQGQWAEDVLGNKTWDRETRDLTGNGKDLRMTLAHIKDQKEGLHSLQEIRVCEIHEDNSTRSSQHFYYDGELFLSQNLETKEWTMPQSSRAQTLAMNVRNFLKEDAMKTKTHYHAMHADCLQELRRYLKSGVVLRRTVPPMVQVTRSEASGGSGDRVTITCRASQDVSTAVAWYQQKPGKAPKLLIYSASFLYSGVPSRFSGSGSGTDFTLTISSLQPEDFATYYCQQSYTTPPTFGQGTKVEIKGGSSRSSSSGGGGSGGGGEVQLVESGGGLVQPGGSLRLSCAASGFTFTSTGISWVRQAPGKGLEWVGRIYPTNGSTNYADSVKGRFTISADTSKNTAYLQMNSLRAEDTAVYYCARTYGIYDLYVDYTEYVMDYWGQGTLVTVSSGGSSRSSSSGGGGSGGGGDIQMTQSPSSLSASGGSGQITVTCRASGFYPWNITLSWRQDGVSLSHDTQQWGDVLPDGQGTYQTWVATRISQGEEQRFTCYMEHSGQHSTHPVPSGKGSHHHHHH
notes: His-tagged α1-α2-α3-Fv fusion, made in 293 cells; also called natural α1-α2 domain α3-Fv fusion
B2: MICv27-Fv (designed binder)
chain: EPHSLRYNLTVLSWDGSVQSGFLTEVHLDGQPFLRCDRQKCRAKPQGQWAEDVLGNKTWDRETRDLTGWGKDLRMTLAHIKDQKEGLHSLQEIRVCEIHEDNSTRSSQHFYYDGELFLSQNLETLEWTMPQSSRAQTLAMNVRNFLKEDAMKTKTHYHAMRADCLSELRRYLKSGVVLRRTVPPMVQVTRSEASGGSGDRVTITCRASQDVSTAVAWYQQKPGKAPKLLIYSASFLYSGVPSRFSGSGSGTDFTLTISSLQPEDFATYYCQQSYTTPPTFGQGTKVEIKGGSSRSSSSGGGGSGGGGEVQLVESGGGLVQPGGSLRLSCAASGFTFTSTGISWVRQAPGKGLEWVGRIYPTNGSTNYADSVKGRFTISADTSKNTAYLQMNSLRAEDTAVYYCARTYGIYDLYVDYTEYVMDYWGQGTLVTVSSGGSSRSSSSGGGGSGGGGDIQMTQSPSSLSASGGSGQITVTCRASGFYPWNITLSWRQDGVSLSHDTQQWGDVLPDGQGTYQTWVATRISQGEEQRFTCYMEHSGQHSTHPVPSGKGSHHHHHH
notes: His-tagged α1-α2-α3-Fv fusion; also called DSM27 α1-α2-α3-Fv fusion
B3: MICv20-Fv (designed binder)
chain: EPHSLRYNLTVLSWDGSVQSGFLTEVHLDGQPFLRCDRQKCRAKPQGQWAEDVLGNKTWDRETRDLTAWGKDLRMTLAHIKDQKEGLHSLQEIRVCEIHEDNSTRSSQHFYYDGELFLSQNLETLEWTMPQSSRAQTLAMNVRNFLKEDAMQTDTHYRAMHADCLFELRRYLKSGVVLRRTVPPMVQVTRSEASGGSGDRVTITCRASQDVSTAVAWYQQKPGKAPKLLIYSASFLYSGVPSRFSGSGSGTDFTLTISSLQPEDFATYYCQQSYTTPPTFGQGTKVEIKGGSSRSSSSGGGGSGGGGEVQLVESGGGLVQPGGSLRLSCAASGFTFTSTGISWVRQAPGKGLEWVGRIYPTNGSTNYADSVKGRFTISADTSKNTAYLQMNSLRAEDTAVYYCARTYGIYDLYVDYTEYVMDYWGQGTLVTVSSGGSSRSSSSGGGGSGGGGDIQMTQSPSSLSASGGSGQITVTCRASGFYPWNITLSWRQDGVSLSHDTQQWGDVLPDGQGTYQTWVATRISQGEEQRFTCYMEHSGQHSTHPVPSGKGSHHHHHH
notes: His-tagged α1-α2-α3-Fv fusion; also called DSM20 α1-α2-α3-Fv fusion
B4: MICv48-Fv (designed binder)
chain: EPHSLRYNLTVLSWDGSVQSGFLTEVHLDGQPFLRCDRQKCRAKPQGQWAEDVLGNKTWDRETRDLTGWGKDLRMTLAHIKDQKEGLHSLQEIRVCEIHEDNSTRSSQHFYYDGELFLSQNLETLEWTMPQSSRAQTLAMNVRNFLKEDAMATDTHYIAMRADCLAELRRYLKSGVVLRRTVPPMVQVTRSEASGGSGDRVTITCRASQDVSTAVAWYQQKPGKAPKLLIYSASFLYSGVPSRFSGSGSGTDFTLTISSLQPEDFATYYCQQSYTTPPTFGQGTKVEIKGGSSRSSSSGGGGSGGGGEVQLVESGGGLVQPGGSLRLSCAASGFTFTSTGISWVRQAPGKGLEWVGRIYPTNGSTNYADSVKGRFTISADTSKNTAYLQMNSLRAEDTAVYYCARTYGIYDLYVDYTEYVMDYWGQGTLVTVSSGGSSRSSSSGGGGSGGGGDIQMTQSPSSLSASGGSGQITVTCRASGFYPWNITLSWRQDGVSLSHDTQQWGDVLPDGQGTYQTWVATRISQGEEQRFTCYMEHSGQHSTHPVPSGKGSHHHHHH
notes: His-tagged α1-α2-α3-Fv fusion; also called DSM48 α1-α2-α3-Fv fusion
B5: MICv25-Fv (designed binder)
chain: EPHSLRYNLTVLSWDGSVQSGFLTEVHLDGQPFLRCDRQKCRAKPQGQWAEDVLGNKTWDRETRDLTGWGKDLRMTLAHIKDQKEGLHSLQEIRVCEIHEDNSTRSSQHFYYDGELFLSQNLETLEWTMPQSSRAQTLAMNVRNFLKEDAMETDTHYHAMRADCLSELRRYLKSGVVLRRTVPPMVQVTRSEASGGSGDRVTITCRASQDVSTAVAWYQQKPGKAPKLLIYSASFLYSGVPSRFSGSGSGTDFTLTISSLQPEDFATYYCQQSYTTPPTFGQGTKVEIKGGSSRSSSSGGGGSGGGGEVQLVESGGGLVQPGGSLRLSCAASGFTFTSTGISWVRQAPGKGLEWVGRIYPTNGSTNYADSVKGRFTISADTSKNTAYLQMNSLRAEDTAVYYCARTYGIYDLYVDYTEYVMDYWGQGTLVTVSSGGSSRSSSSGGGGSGGGGDIQMTQSPSSLSASGGSGQITVTCRASGFYPWNITLSWRQDGVSLSHDTQQWGDVLPDGQGTYQTWVATRISQGEEQRFTCYMEHSGQHSTHPVPSGKGSHHHHHH
notes: His-tagged α1-α2-α3-Fv fusion; also called DSM25 α1-α2-α3-Fv fusion
B6: MICv42-Fv (designed binder)
chain: EPHSLRYNLTVLSWDGSVQSGFLTEVHLDGQPFLRCDRQKCRAKPQGQWAEDVLGNKTWDRETRDLTGWGKDLRMTLAHIKDQKEGLHSLQEIRVCEIHEDNSTRSSQHFYYDGELFLSQNLETLEWTMPQSSRAQTLAMNVRNFLKEDAMETDTHYHAMRADCLQELRRYLKSGVVLRRTVPPMVQVTRSEASGGSGDRVTITCRASQDVSTAVAWYQQKPGKAPKLLIYSASFLYSGVPSRFSGSGSGTDFTLTISSLQPEDFATYYCQQSYTTPPTFGQGTKVEIKGGSSRSSSSGGGGSGGGGEVQLVESGGGLVQPGGSLRLSCAASGFTFTSTGISWVRQAPGKGLEWVGRIYPTNGSTNYADSVKGRFTISADTSKNTAYLQMNSLRAEDTAVYYCARTYGIYDLYVDYTEYVMDYWGQGTLVTVSSGGSSRSSSSGGGGSGGGGDIQMTQSPSSLSASGGSGQITVTCRASGFYPWNITLSWRQDGVSLSHDTQQWGDVLPDGQGTYQTWVATRISQGEEQRFTCYMEHSGQHSTHPVPSGKGSHHHHHH
notes: His-tagged α1-α2-α3-Fv fusion; also called DSM42 α1-α2-α3-Fv fusion
B7: MICv49-Fv (designed binder)
chain: EPHSLRYNLTVLSWDGSVQTGFLTEVHLDGQPFLRCDRQKCRAKPQGQWAEDVLGNKTWDRETRDLTQWGKDLRMTLAHIKDQKEGLHSLQEIRVCEIHEDNSTRSSQHFYYDGELFLSQNLETKEWTMPQSSRAQTLAMNVRNFLKEDAMFTDTHYRAMTADCLTELRRYLKSGVVLRRTVPPMVQVTRSEASGGSGDRVTITCRASQDVSTAVAWYQQKPGKAPKLLIYSASFLYSGVPSRFSGSGSGTDFTLTISSLQPEDFATYYCQQSYTTPPTFGQGTKVEIKGGSSRSSSSGGGGSGGGGEVQLVESGGGLVQPGGSLRLSCAASGFTFTSTGISWVRQAPGKGLEWVGRIYPTNGSTNYADSVKGRFTISADTSKNTAYLQMNSLRAEDTAVYYCARTYGIYDLYVDYTEYVMDYWGQGTLVTVSSGGSSRSSSSGGGGSGGGGDIQMTQSPSSLSASGGSGQITVTCRASGFYPWNITLSWRQDGVSLSHDTQQWGDVLPDGQGTYQTWVATRISQGEEQRFTCYMEHSGQHSTHPVPSGKGSHHHHHH
notes: His-tagged α1-α2-α3-Fv fusion; also called DSM49 α1-α2-α3-Fv fusion
B8: MICv28-Fv (designed binder)
chain: EPHSLRYNLTVLSWDGSVQSGFLTEVHLDGQPFLRCDRQKCRAKPQGQWAEDVLGNKTWDRETRDLTGNGKDLRMTLAHIKDQKEGLHSLQEIRVCEIHEDNSTRSSQHFYYDGELFLSQNLETLEWTMPQSSRAQTLAMNVRNFLKEDAMKTKTHYHAMRADCLSELRRYLKSGVVLRRTVPPMVQVTRSEASGGSGDRVTITCRASQDVSTAVAWYQQKPGKAPKLLIYSASFLYSGVPSRFSGSGSGTDFTLTISSLQPEDFATYYCQQSYTTPPTFGQGTKVEIKGGSSRSSSSGGGGSGGGGEVQLVESGGGLVQPGGSLRLSCAASGFTFTSTGISWVRQAPGKGLEWVGRIYPTNGSTNYADSVKGRFTISADTSKNTAYLQMNSLRAEDTAVYYCARTYGIYDLYVDYTEYVMDYWGQGTLVTVSSGGSSRSSSSGGGGSGGGGDIQMTQSPSSLSASGGSGQITVTCRASGFYPWNITLSWRQDGVSLSHDTQQWGDVLPDGQGTYQTWVATRISQGEEQRFTCYMEHSGQHSTHPVPSGKGSHHHHHH
notes: His-tagged α1-α2-α3-Fv fusion; also called DSM28 α1-α2-α3-Fv fusion
B9: ULBP6-α3-iFv.2 (designed binder)
chain: EPHSLCYDITVIPKFRPGPRWCAVQGQVDEKTFLHYDCGNKTVTPVSPLGKKLNVTTAWKAQNPVLREVVDILTEQLLDIQLENYTPKEPLTLQARMSCEQKAEGHSSGSWQFSIDGQTFLLFDSEKRMWTTVHPGARKMKEKWENDKDVAMSFHYISMGDCIGWLEDFLMGMDSTLEPSAGAPPMVQVTRSEASGGSGDRVTITCRASQDVSTAVAWYQQKPGKAPKLLIYSASFLYSGVPSRFSGSGSGTDFTLTISSLQPEDFATYYCQQSYTTPPTFGQGTKVEIKGGSSRSSSSGGGGSGGGGEVQLVESGGGLVQPGGSLRLSCAASGFTFTSTGISWVRQAPGKGLEWVGRIYPTNGSTNYADSVKGRFTISADTSKNTAYLQMNSLRAEDTAVYYCARTYGIYDLYVDYTEYVMDYWGQGTLVTVSSGGSSRSSSSGGGGSGGGGDIQMTQSPSSLSASGGSGQITVTCRASGFYPWNITLSWRQDGVSLSHDTQQWGDVLPDGQGTYQTWVATRISQGEEQRFTCYMEHSGQHSTHPVPSGKGSHHHHHH
notes: His-tagged, monomeric, insect cells; also called NKG2DL-α3-iFv.2 (ULBP6)

Target: T1, His-avitag-natural NKG2D (human, biotin on the avitag sequence (BirA))
T1 construct: also called natural NKG2D ectodomain; wild type NKG2D
T1 chain: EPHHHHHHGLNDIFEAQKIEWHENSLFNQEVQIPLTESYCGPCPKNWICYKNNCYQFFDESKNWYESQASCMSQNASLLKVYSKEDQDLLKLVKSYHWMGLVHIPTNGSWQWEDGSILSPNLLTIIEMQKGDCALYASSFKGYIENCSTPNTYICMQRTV
Assay: biolayer interferometry (Octet), biotinylated natural NKG2D ectodomain on the surface, 100 nM fusion protein

Point of comparison: B3, Kd 0.0851 nM. Against it:
- B1 — 160-fold higher, 13.8 nM
- B2 — 4.8-fold higher, 0.411 nM
- B4 — 2.9-fold higher, 0.244 nM
- B5 — within 1.5-fold, 0.0616 nM
- B6 — within 1.5-fold, 0.109 nM
- B7 — 8.8-fold higher, 0.746 nM
- B8 — 3.9-fold higher, 0.33 nM

Point of comparison: B7, koff 2.76e-05 s⁻¹. Against it:
- B1 — 65-fold higher, 0.0018 s⁻¹
- B2 — 3.1-fold higher, 8.54e-05 s⁻¹
- B3 — within 1.5-fold, 3.05e-05 s⁻¹
- B4 — 5.3-fold higher, 0.000145 s⁻¹
- B5 — within 1.5-fold, 2.88e-05 s⁻¹
- B6 — within 1.5-fold, 3.78e-05 s⁻¹
- B8 — 2.5-fold higher, 7.03e-05 s⁻¹

Point of comparison: B3, kon 359000 M⁻¹ s⁻¹. Against it:
- B1 — 2.8-fold lower, 130000 M⁻¹ s⁻¹
- B2 — 1.7-fold lower, 208000 M⁻¹ s⁻¹
- B4 — 1.7-fold higher, 595000 M⁻¹ s⁻¹
- B5 — within 1.5-fold, 467000 M⁻¹ s⁻¹
- B6 — within 1.5-fold, 347000 M⁻¹ s⁻¹
- B7 — 9.7-fold lower, 37000 M⁻¹ s⁻¹
- B8 — within 1.5-fold, 246000 M⁻¹ s⁻¹

target: T2, human NKG2D-Fc (human, UniProt P26718 78-216, limits assumed); assay: ELISA: protein captured on FGFR3 detected with NKG2D-Fc
T2 construct: also called natural NKG2D-Fc; not shown: Fc part
T2 sequence (looked up): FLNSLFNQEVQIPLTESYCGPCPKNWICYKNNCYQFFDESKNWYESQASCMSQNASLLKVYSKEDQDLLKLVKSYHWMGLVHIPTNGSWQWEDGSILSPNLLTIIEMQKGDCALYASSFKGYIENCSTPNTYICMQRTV

B9: binds.
